Reference: US20100178296A1 (SCHERING, published 2010)
Substitutions are numbered along the chain they refer to.

B1: CYS mutated human CD200RLa, full length, on Ba/F3 cells expressing human DAP12 (receptor)
chain: GKQMTQNYSTIFAEGNISQPVLMDINAVLCCPPIALRNLIIITWEIILRGQPSCTKAYKKETNETKETNCTVERITWVSRPDQNSDLQILPVDTTHDGYYRCIVVTPDGNFHRGYHLQVLVTPEVNLFQSRNITAVCKAVTGKPAAQISWIPEGSICATKQEYWGNGTVTVKSTCPWEGHKSTVTCHVSHLTGNKSLSVKLNSGLRTSGSPALSLLIILYVKLSLFVVILVTTGFVFFQRINHVRKVL
notes: also called Human CD200RLa-Cys-mut; CYS mutated form of the receptor
B2: DX182, rat anti-human inhibitory CD200R monoclonal antibody (antibody, V domains shown)
VL: EVQMTQSPSTLTASPGESVSINCKASKNIRSYLAWYQQKPGKPNKLLIYSGSTLHSGTPSRFSGSGFGTDFTLTIRNLEPEDFGLYYCQQHHEYPLTFGSGTKLEIKR
VH: EIQLQESGPGLVKPSQSLSLTCSVTGYTITSGYDWSWIRKFPGNKMEWMGYINYGGSTNYKPSLGSRISITRDTSKNQFFLQLNSVSPEDTATYYCAKYNEYKSYIYDWYFDFWGPGTMVTVSS
notes: Rat hybridoma antibody; Rat IgG2a served as its isotype control; also called rat DX182; anti-huCD200R

What was measured:
[1] = molecular target: T1, human DAP12 with a FLAG epitope at the N terminus, in Ba/F3 cells (human, UniProt O43914 22-113); test: surface appearance of FLAG-DAP12 on Ba/F3 transfectants, flow cytometry with anti-FLAG M2
T1 construct: whole, on cells; also called FLAG-tagged DAP12

[2] = molecular target: T2, CYS mutated human CD200RLa extracellular domain fused to the Fc region of human IgG1 (human, UniProt Q6Q8B3 24-239); test: indirect ELISA on the fusion protein
T2 construct: also called CYS mutated human CD200RLa fusion protein; Human CD200RLa-Cys-mut; not shown: Fc region of human IgG1
T2 chain: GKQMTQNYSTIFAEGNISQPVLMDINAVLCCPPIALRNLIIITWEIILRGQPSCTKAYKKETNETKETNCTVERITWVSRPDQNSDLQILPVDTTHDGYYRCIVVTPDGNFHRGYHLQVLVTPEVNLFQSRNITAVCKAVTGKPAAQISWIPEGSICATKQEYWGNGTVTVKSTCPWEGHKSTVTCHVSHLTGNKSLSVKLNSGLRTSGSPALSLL

[3] = molecular target: T3, wild-type human CD200RLa extracellular domain fused to the Fc region of human IgG1 (human, UniProt Q6Q8B3 24-239); test: indirect ELISA on the fusion protein
T3 construct: also called wild-type human CD200RLa fusion protein; not shown: Fc region of human IgG1
T3 sequence: T2 chain with C102G, C157L

[4] = molecular target: B1; test: flow cytometry on Ba/F3 transfectants

T1 sequence (O43914 22-113): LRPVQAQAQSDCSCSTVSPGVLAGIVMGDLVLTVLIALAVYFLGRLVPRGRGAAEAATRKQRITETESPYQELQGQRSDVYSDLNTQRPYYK

Does B1 bind [1]?
Result: binds

Does B2 bind [2]?
Result: no binding

Does B2 bind [3]?
Result: no binding

Does B2 bind [4]?
Result: no binding
